Reference: FireProtDB (doi:10.1016/s0014-5793(98)01666-4)

B1: Parvalbumin alpha, P02625 (parent)
chain: MSMTDLLSAEDIKKAIGAFTAADSFDHKKFFQMVGLKKKSADDVKKVFHILDKDKSGFIEEDELGSILKGFSSDARDLSAKETKTLMAAGDKDGDGKIGVEEFSTLVAES

Variants of: B1
Details: Rattus norvegicus; pH 7.4; Thermal; DSC; EDTA 10 mM; NaCl 0.20 M; transition: 2; reversible: yes; structure 1RTP; whole UniProt chain shown

Row | Variant | Tm | unfolding enthalpy (calorimetric) | unfolding enthalpy (van 't Hoff)
1 | MSMTDLLSAEDIKKAIGAFTAADSFDHKKFFQMVGLKKKSADDVKKVFHILDKDKSGFIEEDELGSILKGFSSDARDLSAKETKTLMAAGDKDGDGKIGVEEFSTLVASS | 41.8 °C | 62 kcal/mol | 63 kcal/mol
